From US12617827B2, “Self-assembling peptide” (NATIONAL UNIVERSITY CORPORATION TOKYO MEDICAL AND DENTAL …, priority 2020, dated 2026)
Where two headings read alike, the source gives them in different places.

What was measured:
[1] = target: RADA16 peptide, as RADA16 peptide gel; assay: incorporation into the peptide gel; unincorporated fraction in PBS washes measured by sandwich ELISA
[2] = Rheological property of the peptide gel (rheometer, storage elastic modulus G′ and loss elastic modulus G″); format: physicochemical; details: peptide concentration 1.0% by weight
Experimental: Among gels having a concentration of 1.0% by weight prepared in Example 1, gels formed by six types of peptide samples as examples: […] peptide (SEQ ID NO: 1), […] peptide (SEQ ID NO: 2), […] peptide (SEQ ID NO: 4), […] peptide (SEQ ID NO: 5), […] peptide (SEQ ID NO: 6), and […] peptide (SEQ ID NO: 8) were subjected to measurement of the rheological property thereof.
The rheological property was measured for 250 μL of a sample with a rheometer (Malvern Panalytical, Kinexus lab+). Specifically, the sample was sandwiched at a gap of 0.2 mm between plates, and subjected to measurement at 20° C.
The storage elastic modulus G′ and the loss elastic modulus G″ of a gel formed by each peptide are obtained by measurement of the rheological property. The storage elastic modulus G′ represents a component stored in an object, of the energy generated by an external force to the object and a strain, and the loss elastic modulus G″ represents a component externally diffused. In a case where a measurement specimen is a gel, the storage elastic modulus G′ generally exceeds the loss elastic modulus G″.

[3] = cited from earlier work
[4] = Fluidity test (gel formation ability) of peptide samples; format: physicochemical; details: 1.0% by weight in D-MEM (44 mM NaHCO3, pH 7.4), 37°C, CO2 5%, 48 hours
Experimental: A peptide powder after freeze-drying at 2.5 mg and 250 μL of D-MEM (containing 1×penicillin, 4.0 mM HEPES, 44 mM NaHCO3; pH 7.4) were added to a 1-mL microtube (glass container having an inner diameter of 5 mm and a height of 5 cm; Maruemu Corporation, Model No. 1), and ultrasound was irradiated in a water bath type ultrasonic apparatus (AS12GTU, 35 kHz, 60 W), to thereby disperse the peptide at a concentration of 1.0% by weight. Thereafter, the microtube was left to stand in a CO2 incubator (37° C., CO2 concentration 5%) for 48 hours in a state standing vertically with the bottom surface thereof facing downward. Penicillin (Life Technologies Corporation, Model No. 15140148) was used as an antibacterial agent at 100 U/mL for the purpose of prevention of mold generation, and a CO2 incubator was used for performing gelling in a condition similar to an in vivo condition.
In order to test whether the peptide sample lost fluidity and gelled, the sample was sealed in a CO2 incubator (37° C., CO2 concentration 5%) and taken out of the incubator, the microtube was rapidly flipped vertically, and a photograph of the peptide sample was taken and recorded. In a case where a portion or all of the peptide sample remained on the bottom surface side of the microtube, the peptide sample was determined to have lost fluidity and gelled. On the other hand, in a case where all of the peptide sample dropped to the cap side of the microtube, the peptide sample was determined not to have gelled.
Additional five types of peptides: […] (SEQ ID NO: 41), […] (SEQ ID NO: 42), […] (SEQ ID NO: 43), […] (SEQ ID NO: 44), and […] (SEQ ID NO: 45) were synthesized according to the same methods as in (1) to (3) of Example 1, and were subjected to gelling and fluidity test.

[5] = Circular dichroism spectrum of peptide gels; format: physicochemical; details: 1.0% by weight peptide gel
Source text: The “circular dichroism” refers to a phenomenon in which a difference in absorbance occurs between left-handed circularly polarized light and right-handed circularly polarized light when a protein absorbs a circularly polarized light.
Among the peptide gels having a concentration of 1.0% by weight prepared in Example 1, three types of peptides as examples: […] peptide (SEQ ID NO: 4), […] peptide (SEQ ID NO: 2), and […] peptide (SEQ ID NO: 5) were subjected to measurement of circular dichroism spectra at 20° C., 40° C., 60° C., and 80° C. and circular dichroism spectra when re-cooled from 80° C. to 20° C.
The circular dichroism spectrum was measured with a JASCO J-1100 CD Spectrometer by using an assembly cell (GL Sciences, AB20-UV-0.1, cell length 0.1 mm). The measurement range was from 190 to 400 nm, the data-obtaining interval was 0.2 nm, the scanning speed was 200 nm/min, and the specimen concentration was 1.0% by weight. When the circular dichroism spectrum was measured, the temperature was controlled with JASCO temperature regulation unit and a water-cooled Peltier cell holder PTC-514.

[6] = tested on: mouse fetus-derived 3T3 cells (NIH3T3 cells); assay: Evaluation of cell adhesiveness on peptide-coated chamber slide; format: cell-based; details: 30 minutes on peptide-coated slide, compared with (RADA)4 peptide control
Experimental: A peptide sample having a concentration of 1.0% by weight was prepared by the same method as in Example 1. The peptide sample at 50 μL was dropped on a chamber slide (Merck Millipore, Millicell EZ 8-well glass) and dried under reduced pressure using a centrifugal concentrator (TAITEC CORPORATION, VC-96W), to thereby produce a chamber slide coated with the peptide. After 1.8×10^5 of mouse fetus-derived 3T3 cells (NIH3T3 cells) were suspended in 250 μL of a DMEM medium (containing 44 mM NaHCO3, Gibco, 11995-065) containing 10% serum and seeded onto the chamber slide coated with the peptide, incubation was performed in a CO2 incubator (37° C., CO2 concentration 5%) for 30 minutes. The chamber slide was washed with PBS, and cells not adhering thereto were removed. The adhering cells remaining after the washing were immobilized with 4% PFA, and then subjected to DAPI staining. The number of adhering cells was measured according to stereology as a strict quantitative determination technique which eliminates sampling biases. Specifically, nine frames of 100 μm×100 μm were created in a region of 300 μm×300 μm, and the number of cells in each of the frames was counted. The resulting number of cells was converted into the number of cells in a region of 1 mm×1 mm. In the present Example, a (RADA)4 peptide (SEQ ID NO: 19), which is known to form a cell-adhesive peptide gel, was used as a control.

Row | Substance | gelling (loss of fluidity after vertical flipping of the microtube) [4] | other results
1 | GFP-RADA16 fusion peptide (from UniProt P42212 1-238) | – | incorporation rate [1]: < 70%
2 | RADARADARADARADA [(RADA)4, reference compound] | – | G' (Pa) ([2]; 2.2% TFA aq.): 265 Pa; G' (Pa) ([3]; pH 3-4, peptide concentration 1.0% by weight): 30^*3 Pa
3 | RIDADMRARIR | gelled | G' (Pa) ([2]; DMEM (pH 7.4), 20°C): 47,500 Pa
4 | RIDARMDARIR | gelled | G' (Pa) ([2]; DMEM (pH 7.4), 20°C): 58,300 Pa; circular dichroism signal (β-sheet structure) [5]: negative cotton effect around 220 nm; cell adhesiveness (number of adhering cells) [6]: comparable with or more than a (RADA)4 peptide
5 | RIDARMRADIR | gelled | G' (Pa) ([2]; DMEM (pH 7.4), 20°C): 21,300 Pa; circular dichroism signal (β-sheet structure) [5]: negative cotton effect around 220 nm; cell adhesiveness (number of adhering cells) [6]: comparable with or more than a (RADA)4 peptide
6 | RIDARMRADMR | gelled | –
7 | RIRADIRADMR | gelled | –
8 | RIRADIRGDIR | gelled | –
9 | RIRADMDARIR | gelled | –
10 | RIRADMRADIR | gelled | G' (Pa) ([2]; DMEM (pH 7.4), 20°C): 4,830 Pa; circular dichroism signal (β-sheet structure) [5]: negative cotton effect around 220 nm; cell adhesiveness (number of adhering cells) [6]: comparable with or more than a (RADA)4 peptide
11 | RIRADMRGDIR | gelled | –
12 | RIRARMDADIR | gelled | G' (Pa) ([2]; DMEM (pH 7.4), 20°C): 6,500 Pa
13 | RIRGDIRADIR | gelled | –
14 | RIRGDIRGDIR | gelled | –
15 | RIRGDMRADIR | gelled | –
16 | RIRGDMRGDIR | gelled | G' (Pa) ([2]; DMEM (pH 7.4), 20°C): 47,800 Pa
17 | RLDLRLALRLDLR [SPG178, known peptide gelling agent] | – | G' (Pa) ([3]; pH 7, peptide concentration 1.0% by weight): 70^*3 Pa; G' (Pa) ([3]; pH 7, peptide concentration 1.5% by weight): 300^*3 Pa
18 | RMDADMRARIR | gelled | –
19 | RMDARIDARIR | gelled | –
20 | RVDVDVRVRVR | did not gel | –
21 | RVDVRVDVRVR | did not gel | –
22 | RVDVRVRVDVR | did not gel | –
23 | RVRVDVDVRVR | did not gel | –
24 | RVRVDVRVDVR | did not gel | –
25 | RVRVRVDVDVR | did not gel | –
